Data as given in the supplement of paper PMC6757056.
± gives the standard deviation of the averaged measurements.

B1: library; a variant is named by its letters at N, in order (parent)
chain: GCUGUCACCGAGAAACUGUGAAGUAUAUCUUAAACCUGGGCACUUAAAAGAUAUAUGGAGUUAGUAGUGCAACCUGCUCGGUCUGAUGAGUCCNNNNNNGGACGAAACAGC

How the values were obtained:
[1] = variants of: B1; assay: FACS-Seq fitted mean relative fluorescence mCherry/BFP without ligand (log10 relative fluorescence); HEK293T; ligand: cyclic di-GMP (c-di-GMP-II aptamer); higher = higher reporter protein expression; details: ligand present: no
Method in brief: (§1)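 The ribozyme switch sat in an mCherry reporter, delivered by lentivirus into HEK293T libraries along with an EF1α-BFP marker. Enriched cells were incubated 48 h with or without ligand, sorted into 6 bins by mCherry/BFP, and bin genomic DNA was PCR-amplified, barcoded and MiSeq-sequenced. Fluorescence equals the fitted normal mean of the bin counts after normalization. Those log10(mCherry/BFP) means were scaled to five spiked-in control ribozymes.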

[2] = variants of: B1; assay: normalized RNA/DNA level without ligand (relative to sTRSVctl = 100) (log10 (% of sTRSVctl)); HEK293T; ligand: cyclic di-GMP (c-di-GMP-II aptamer); higher = less ribozyme self-cleavage, higher mRNA level; details: reporter: mCherry (pCS4076), ligand present: no
Method in brief: (§2)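 Ribozyme switch library plasmids linked to reporters were introduced into HEK293T cells at 4 µg per 6-well well, with ligand, if any, added 1 h before. Total RNA was extracted with EDTA 72 h later, reverse-transcribed, amplified, barcoded and sequenced. RNA level was computed from RNA over DNA reads relative to a spiked-in non-cleaving sequence or the top sequences, then scaled and log-transformed. The top set was 25 sequences, values were ×100 and log10, and the cutoff was ≥100 DNA reads.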

[3] = variants of: B1; assay: FACS-Seq fitted mean relative fluorescence mCherry/BFP with ligand (log10 relative fluorescence); HEK293T; ligand: cyclic di-GMP (c-di-GMP-II aptamer); ligand concentration (+) FACS-Seq: 1 mM; higher = higher reporter protein expression; details: ligand present: yes
Method in brief: as §1

[4] = variants of: B1; assay: normalized RNA/DNA level with ligand (relative to sTRSVctl = 100) (log10 (% of sTRSVctl)); HEK293T; ligand: cyclic di-GMP (c-di-GMP-II aptamer); ligand concentration (+) RNA-Seq: 1 mM; higher = less ribozyme self-cleavage, higher mRNA level; details: reporter: mCherry (pCS4076), ligand present: yes
Method in brief: as §2

Variant | FACS-Seq fitted mean (log10) [1] | normalized RNA/DNA level without ligand (log10) [2] | FACS-Seq fitted mean (log10) [3] | normalized RNA/DNA level with ligand (log10) [4]
UGUACC | 0.263 ± 0.21 | 1.79 ± 0.068 | 0.4414 ± 0.00076 | 1.9 ± 0.13
AGGUCA | -0.483 ± 0.071 | 1.649 ± 0.0037 | -0.219 ± 0.037 | 1.77 ± 0.14
UUAUCC | -0.109 ± 0.15 | 1.76 ± 0.023 | 0.218 ± 0.082 | 1.86 ± 0.084
CGUGAC | -0.217 ± 0.012 | 1.58 ± 0.081 | 0.0888 ± 0.11 | 1.74 ± 0.092
CGUGAU | -0.47 ± 0.026 | 1.45 ± 0.057 | -0.173 ± 0.018 | 1.69 ± 0.07
CGUGAA | -0.546 ± 0.02 | 1.24 ± 0.057 | -0.396 ± 0.0075 | 1.35 ± 0.099
GUAUAG | -1.32 ± 0.018 | 1.56 ± 0.12 | -1.05 ± 0.12 | 1.74 ± 0.063
CUCCUA | -0.0767 ± 0.066 | 1.44 ± 0.12 | 0.0398 ± 0.14 | 1.68 ± 0.14
CUCAUA | -0.575 ± 0.039 | 1.43 ± 0.079 | -0.298 ± 0.012 | 1.65 ± 0.14
AUAACG | -0.0695 ± 0.081 | 1.58 ± 0.027 | 0.0722 ± 0.12 | 1.76 ± 0.12
GUAAUG | -0.57 ± 0.093 | 1.63 ± 0.061 | -0.481 ± 0.029 | 1.75 ± 0.066
UUCCGU | 0.0201 ± 0.13 | 1.7 ± 0.02 | 0.296 ± 0.053 | 1.83 ± 0.08
UGUCCU | -0.0961 ± 0.059 | 1.7541 ± 0.0017 | 0.158 ± 0.027 | 1.89 ± 0.1
UUAGUG | -0.38 ± 0.014 | 1.625 ± 0.0063 | -0.0431 ± 0.00068 | 1.81 ± 0.091
AGGUGA | -0.464 ± 0.029 | 1.52 ± 0.1 | -0.245 ± 0.0095 | 1.6 ± 0.083
GUAUGA | -0.487 ± 0.16 | 1.42 ± 0.092 | -0.189 ± 0.072 | 1.67 ± 0.081
UUAUAU | -0.127 ± 0.066 | 1.68 ± 0.0031 | 0.0702 ± 0.1 | 1.8 ± 0.081
CGUUAA | -0.684 ± 0.057 | 1.22 ± 0.036 | -0.425 ± 0.019 | 1.4 ± 0.14
CGUUAU | -0.444 ± 0.047 | 1.42 ± 0.13 | -0.148 ± 0.06 | 1.61 ± 0.081
UUCACU | -0.67 ± 0.15 | 1.73 ± 0.018 | -0.577 ± 0.18 | 1.85 ± 0.1
UUCAAU | -0.187 ± 0.012 | 1.71 ± 0.03 | 0.267 ± 0.037 | 1.82 ± 0.14
UUCAAC | -0.163 ± 0.071 | 1.695 ± 0.004 | 0.153 ± 0.024 | 1.82 ± 0.12
AUAGGG | -0.534 ± 0.02 | 1.41 ± 0.12 | -0.187 ± 0.073 | 1.59 ± 0.15
AUAGGU | -0.384 ± 0.071 | 1.51 ± 0.061 | -0.171 ± 0.092 | 1.69 ± 0.14

Variant | FACS-Seq fitted mean (log10) [1] | normalized RNA/DNA level without ligand (log10) [2] | FACS-Seq fitted mean (log10) [3] | normalized RNA/DNA level with ligand (log10) [4]
CGUCAA | -0.556 ± 0.083 | 1.31 ± 0.093 | -0.352 ± 0.01 | 1.49 ± 0.13
CUCGAA | -0.00262 ± 0.0023 | 1.41 ± 0.12 | 0.32 ± 0.035 | 1.6 ± 0.097
AUACGA | -0.518 ± 0.09 | 1.46 ± 0.08 | -0.228 ± 0.13 | 1.67 ± 0.14
CGUACA | -0.654 ± 0.072 | 1.32 ± 0.032 | -0.354 ± 0.046 | 1.53 ± 0.12
CGUACU | -0.584 ± 0.039 | 1.43 ± 0.087 | -0.327 ± 0.022 | 1.66 ± 0.12
CGUAAU | -0.374 ± 0.0044 | 1.36 ± 0.17 | -0.0343 ± 0.11 | 1.53 ± 0.093
CGUAAA | -0.605 ± 0.042 | 1.23 ± 0.081 | -0.386 ± 0.039 | 1.34 ± 0.11
CGUGCA | -0.119 ± 0.16 | 1.68 ± 0.078 | 0.0822 ± 0.039 | 1.79 ± 0.1
CGUGCG | -0.833 ± 0.015 | 1.8 ± 0.02 | -0.561 ± 0.012 | 1.83 ± 0.11
UGGUCG | -0.511 ± 0.12 | 1.77 ± 0.034 | -0.326 ± 0.0047 | 1.89 ± 0.045
GUAGAG | 0.0274 ± 0.11 | 1.47 ± 0.073 | 0.252 ± 0.077 | 1.66 ± 0.12
GUAGAU | -0.404 ± 0.035 | 1.55 ± 0.057 | -0.145 ± 0.055 | 1.72 ± 0.08
GUAGAA | -0.503 ± 0.021 | 1.39 ± 0.081 | -0.1892 ± 0.0011 | 1.63 ± 0.1
UUAAGA | -0.227 ± 0.096 | 1.613 ± 0.01 | 0.2 ± 0.0086 | 1.76 ± 0.12
GUCGCG | -0.376 ± 0.016 | 1.76 ± 0.018 | -0.0454 ± 0.13 | 1.82 ± 0.071
CGUUCU | -0.248 ± 0.08 | 1.51 ± 0.084 | 0.0758 ± 0.01 | 1.68 ± 0.068
CGUUCA | -0.111 ± 0.098 | 1.39 ± 0.12 | 0.115 ± 0.005 | 1.59 ± 0.12
CGUUCC | -0.821 ± 0.086 | 1.735 ± 0.0027 | -0.407 ± 0.1 | 1.87 ± 0.13
UGUUGA | -0.163 ± 0.015 | 1.6 ± 0.041 | -0.0478 ± 0.051 | 1.78 ± 0.12
UUAUGG | -0.0165 ± 0.12 | 1.74 ± 0.053 | 0.213 ± 0.035 | 1.85 ± 0.13
UUAUGA | -0.781 ± 0.045 | 1.63 ± 0.025 | -0.563 ± 0.026 | 1.81 ± 0.12
GGUAUC | -0.466 ± 0.023 | 1.63 ± 0.018 | -0.193 ± 0.022 | 1.79 ± 0.12
AUAGUA | 0.0378 ± 0.13 | 1.5 ± 0.034 | 0.3053 ± 0.00099 | 1.65 ± 0.046
AUAGUU | -0.615 ± 0.079 | 1.539 ± 0.0099 | -0.438 ± 0.02 | 1.73 ± 0.089

Variant | FACS-Seq fitted mean (log10) [1] | normalized RNA/DNA level without ligand (log10) [2] | FACS-Seq fitted mean (log10) [3] | normalized RNA/DNA level with ligand (log10) [4]
GUAAAU | -0.979 ± 0.044 | 1.6 ± 0.051 | -0.774 ± 0.011 | 1.76 ± 0.084
GUAAAA | -0.251 ± 0.15 | 1.57 ± 0.024 | 0.00851 ± 0.01 | 1.73 ± 0.094
GUAAAG | -0.104 ± 0.13 | 1.55 ± 0.078 | 0.22888 ± 7.2e-05 | 1.74 ± 0.065
UUAAAU | -0.418 ± 0.091 | 1.711 ± 0.0058 | -0.275 ± 0.024 | 1.86 ± 0.11
CGUAUA | -0.76 ± 0.11 | 1.3 ± 0.1 | -0.4664 ± 0.0033 | 1.45 ± 0.13
AUAAAG | -0.485 ± 0.024 | 1.56 ± 0.038 | -0.249 ± 0.071 | 1.73 ± 0.14
CUCGCU | -0.0213 ± 0.09 | 1.8 ± 0.047 | 0.226 ± 0.12 | 1.9 ± 0.079
AGGUAU | -0.276 ± 0.0093 | 1.57 ± 0.046 | 0.0998 ± 0.21 | 1.76 ± 0.066
GUACGC | -0.788 ± 0.17 | 1.77 ± 0.056 | -0.516 ± 0.067 | 1.88 ± 0.091
GUACGA | -0.395 ± 0.055 | 1.43 ± 0.046 | -0.0985 ± 0.03 | 1.64 ± 0.077
GUACGG | 0.00232 ± 0.14 | 1.62 ± 0.053 | 0.333 ± 0.011 | 1.77 ± 0.059
UGUAAA | 0.0683 ± 0.13 | 1.72 ± 0.019 | 0.3702 ± 0.0013 | 1.85 ± 0.086
CUAUUA | -0.459 ± 0.052 | 1.38 ± 0.033 | -0.243 ± 0.052 | 1.6 ± 0.064
AGUAAA | -0.319 ± 0.071 | 1.41 ± 0.038 | 0.121 ± 0.012 | 1.62 ± 0.1
AGUAAC | -0.0857 ± 0.11 | 1.595 ± 0.012 | 0.271 ± 0.023 | 1.79 ± 0.076
AGUAAG | -0.172 ± 0.14 | 1.53 ± 0.11 | 0.221 ± 0.032 | 1.7 ± 0.062
AGUAAU | 0.353 ± 0.055 | 1.7 ± 0.006 | 0.4462 ± 0.0042 | 1.83 ± 0.097
UGUGGG | -0.327 ± 0.023 | 1.74 ± 0.03 | -0.0766 ± 0.022 | 1.86 ± 0.12
CUAUCU | -0.234 ± 0.066 | 1.62 ± 0.021 | -0.142 ± 0.059 | 1.76 ± 0.11
CUAUCC | -0.679 ± 0.11 | 1.77 ± 0.028 | -0.371 ± 0.13 | 1.88 ± 0.13
GUCAAU | -0.201 ± 0.12 | 1.63 ± 0.034 | 0.152 ± 0.028 | 1.78 ± 0.087
GUCAAA | -0.258 ± 0.074 | 1.56 ± 0.036 | 0.0433 ± 0.047 | 1.73 ± 0.095
CGUCGA | -0.179 ± 0.073 | 1.58 ± 0.049 | 0.0661 ± 0.0086 | 1.77 ± 0.093
CUAACU | -0.381 ± 0.006 | 1.59 ± 0.025 | -0.0873 ± 0.0047 | 1.74 ± 0.1
